Data on 8 molecules can be found in patent publication US12384850 (SYSTIMMUNE, dated 2025).

The chains are these.
B1: SI-35E21 (bispecific antibody, not shown: small tags and cut ends)
heavy (part 1 of 7): DIQMTQSPSTLSASVGDRVTITCQSSQSVYSNWFSWYQQKPGKAPKLLIYSASTLASGVPSRFSGSGSGTEFTLTISSLQPDDFATYYCAGGYNTVIDTFAFGGGTKVEIK
heavy (part 2 of 7): EVQLLESGGGLVQPGGSLRLSCAASGIDFSRRYYMCWVRQAPGKGLEWIACIYTGSRDTPHYASSAKGRFTISRDNSKNTLYLQMNSLRAEDTAVYYCAREGSLWGQGTLVTVSS
heavy (part 3 of 7): not shown
heavy (part 4 of 7): EVQLVESGGGLVQPGGSLRLSCTASGFSLSSYAMSWVRQAPGRGLEWIGIIYASGSTYYASSAKGRFTISKDNTKNTVDLQMNSLRAEDTAVYYCARIYDGMDLWGQGTLVTVSS
heavy (part 5 of 7): DIQMTQSPSSLSASVGDRVTINCQASQNIYSYLSWYQQKPGKVPKRLIYLASTLASGVPSRFSGSGSGTDYTLTISSLQPEDVATYYCQSNYNGNYGFGGGTKVEIK
heavy (part 6 of 7): EVQLVESGGGLVQPGGSLRLSCAASGFTISTNAMSWVRQAPGKGLEWIGVITGRDITYYASWAKGRFTISRDNSKNTLYLQMNSLRAEDTAVYYCARDGGSSAITSNNIWGQGTLVTVSS
heavy (part 7 of 7): DVVMTQSPSTLSASVGDRVTINCQASESISSWLAWYQQKPGKAPKLLIYEASKLASGVPSRFSGSGSGTEFTLTISSLQPDDFATYYCQGYFYFISRTYVNSFGGGTKVEIK
light: AYDMTQSPSSVSASVGDRVTIKCQASEDIYSFLAWYQQKPGKAPKLLIHSASSLASGVPSRFSGSGSGTDFTLTISSLQPEDFATYYCQQGYGKNNVDNAFGGGTKVEIKRTVAAPSVFIFPPSDEQLKSGTASVVCLLNNFYPREAKVQWKVDNALQSGNSQESVTEQDSKDSTYSLSSTLTLSKADYEKHKVYACEVTHQGLSSPVTKSFNRGEC
notes: Tetra-specific; the listing has only VHv3/VLv2
B2: SI-35E20 (bispecific antibody, not shown: small tags and cut ends)
heavy (part 1 of 7): DVVMTQSPSSVSASVGDRVTITCQASQNIRTYLSWYQQKPGKAPKLLIYAAANLASGVPSRFSGSGSGTDFTLTISDLEPGDAATYYCQSTYLGTDYVGGAFGGGTKVEIK
heavy (part 2 of 7): RSLVESGGGLVQPGGSLRLSCTASGFTISSYHMQWVRQAPGKGLEYIGTISSGGNVYYASSARGRFTISRPSSKNTVDLQMNSLRAEDTAVYYCARDSGYSDPMWGQGTLVTVSS
heavy (part 3 of 7): not shown
heavy (part 4 of 7): EVQLLESGGGLVQPGGSLRLSCAASGFTISRYHMTWVRQAPGKGLEWIGHIYVNNDDTDYASSAKGRFTISRDNSKNTLYLQMNSLRAEDTATYFCARLDVGGGGAYIGDIWGQGTLVTVSS
heavy (part 5 of 7): DIQMTQSPSSLSASVGDRVTITCQSSQSVYNNNDLAWYQQKPGKVPKLLIYYASTLASGVPSRFSGSGSGTDFTLTISSLQPEDVATYYCAGGYDTDGLDTFAFGGGTKVEIK
heavy (part 6 of 7): B1 heavy (part 6 of 7)
heavy (part 7 of 7): B1 heavy (part 7 of 7)
light: B1 light
notes: as for B1
B3: SI-35E25 (bispecific antibody, not shown: small tags and cut ends)
heavy (part 1 of 7): ALVMTQSPSTLSASVGDRVTINCQASEDIDTYLAWYQQKPGKAPKLLIFYASDLASGVPSRFSGSGSGTEFTLTISSLQPDDFATYYCQGGYYTSSADTRGAFGGGTKVEIK
heavy (part 2 of 7): QSLVESGGGLVQPGGSLRLSCAASGFSFSSNYWICWVRQAPGKGLEWIACIYVGSSGDTYYASSAKGRFTISRDNSKNTLYLQMNSLRAEDTAVYYCARDSSSYYMFNLWGQGTLVTVSS
heavy (part 3 of 7): not shown
heavy (part 4 of 7): EVQLVESGGGLVQPGGSLRLSCAASGFSLNNYWMSWVRQAPGKGLEWIGTISSGAYTWFATWATGRFTISRDNSKNTLYLQMNSLRAEDTAVYYCARYSSTTDWTYFNIWGQGTLVTVSS
heavy (part 5 of 7): DIQMTQSPSTLSASVGDRVTITCQASQSINNYLAWYQQKPGKAPKLLIYRASTLESGVPSRFSGSGSGTEFTLTISSLQPDDFATYYCQSYNGVGRTAFGGGTKVEIK
heavy (part 6 of 7): B1 heavy (part 6 of 7)
heavy (part 7 of 7): B1 heavy (part 7 of 7)
light: B1 light
notes: as for B1
B4: SI-35E24 (bispecific antibody, not shown: small tags and cut ends)
heavy (part 1 of 7): B1 heavy (part 1 of 7)
heavy (part 2 of 7): B1 heavy (part 2 of 7)
heavy (part 3 of 7): not shown
heavy (part 4 of 7): B3 heavy (part 4 of 7)
heavy (part 5 of 7): B3 heavy (part 5 of 7)
heavy (part 6 of 7): B1 heavy (part 6 of 7)
heavy (part 7 of 7): B1 heavy (part 7 of 7)
light: B1 light
notes: Tetra-specific; the listing has only VHv3/VLv2; also called SI-3524
B5: SI-35E19 (bispecific antibody, not shown: small tags and cut ends)
heavy (part 1 of 7): B3 heavy (part 1 of 7)
heavy (part 2 of 7): B3 heavy (part 2 of 7)
heavy (part 3 of 7): not shown
heavy (part 4 of 7): B2 heavy (part 4 of 7)
heavy (part 5 of 7): B2 heavy (part 5 of 7)
heavy (part 6 of 7): B1 heavy (part 6 of 7)
heavy (part 7 of 7): B1 heavy (part 7 of 7)
light: B1 light
notes: as for B1
B6: SI-35E26 (bispecific antibody, not shown: small tags and cut ends)
heavy (part 1 of 7): B2 heavy (part 1 of 7)
heavy (part 2 of 7): B2 heavy (part 2 of 7)
heavy (part 3 of 7): not shown
heavy (part 4 of 7): B3 heavy (part 4 of 7)
heavy (part 5 of 7): B3 heavy (part 5 of 7)
heavy (part 6 of 7): B1 heavy (part 6 of 7)
heavy (part 7 of 7): B1 heavy (part 7 of 7)
light: B1 light
notes: as for B1
B7: SI-35E22 (bispecific antibody, not shown: small tags and cut ends)
heavy (part 1 of 7): B3 heavy (part 1 of 7)
heavy (part 2 of 7): B3 heavy (part 2 of 7)
heavy (part 3 of 7): not shown
heavy (part 4 of 7): B1 heavy (part 4 of 7)
heavy (part 5 of 7): B1 heavy (part 5 of 7)
heavy (part 6 of 7): B1 heavy (part 6 of 7)
heavy (part 7 of 7): B1 heavy (part 7 of 7)
light: B1 light
notes: as for B1
B8: SI-35E23 (bispecific antibody, not shown: small tags and cut ends)
heavy (part 1 of 7): B2 heavy (part 1 of 7)
heavy (part 2 of 7): B2 heavy (part 2 of 7)
heavy (part 3 of 7): not shown
heavy (part 4 of 7): B1 heavy (part 4 of 7)
heavy (part 5 of 7): B1 heavy (part 5 of 7)
heavy (part 6 of 7): B1 heavy (part 6 of 7)
heavy (part 7 of 7): B1 heavy (part 7 of 7)
light: B1 light
notes: as for B1

T1 sequence (Q07011 24-255): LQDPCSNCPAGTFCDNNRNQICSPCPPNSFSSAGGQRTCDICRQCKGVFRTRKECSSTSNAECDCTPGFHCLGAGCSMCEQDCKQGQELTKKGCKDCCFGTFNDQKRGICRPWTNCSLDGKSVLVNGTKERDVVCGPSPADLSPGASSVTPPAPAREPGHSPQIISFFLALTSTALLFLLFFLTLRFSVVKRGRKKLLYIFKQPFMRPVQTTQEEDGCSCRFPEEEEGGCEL

The first test has as its target T1, human 41BB (human, UniProt Q07011 24-255).
T1 construct: whole, on cells; also called 41BB expressing CHO cells; human 41BB transfected CHO cells
The test can be described thus: FACS on human 41BB transfected CHO cells. The procedure:
(§1) Example 2: FACS Analysis of Tetra-Specific GNC Antibody Binding to Human 41BB Transfected CHO Cells The tetra-specific GNC antibodies listed in TABLEs 3 and 4 were tested for binding to Chinese hamster ovary cells (CHO) cells stably expressing a full-length human ROR1. Antibodies were prepared at 2× final concentration and titrated 1:5 across 3 wells of a 96 well plate in 50 ul of PBS/2% FBS and then 5,000 ROR1-CHO cells in 50 ul PBS/2% FBS were added. This mixture was incubated for 30 minutes on ice, washed once with 200 ul PBS/2% FBS, and then the secondary antibody PE Goat anti-Human IgG Fc at 1:1000 dilution of stock was added, and this mixture was incubated for 30 minutes on ice. Cells were washed 2×200 ul PBS/2% FBS, resuspended in 50 ul PBS/2% FBS and analyzed on a BD LSRFORTESSA and the binding profile is shown in FIG. 5. All of the tetra-specific GNC antibodies except for the control SI-27E12 contain a 41BB binding domain, 460C3, 420H5, or 466F6 and bound to 41BB expressing CHO cells with varying intensity.
With B1, the binding result is on record as “binds”.
The same measure, in the same setting: the result for B2 reads “binds”.
Same read-out and setting: for B3 the value was “binds”; for B4, “binds”; for B5, “binds”.
On the same count and under the same terms, the result for B6 reads “binds”; that for B7, “binds”.
Regarding B8, the binding result is “binds”.

For another test, the target named is T2, human PD-L1 (human, UniProt Q9NZQ7 19-290).
T2 construct: whole, on cells; also called PDL1 expressing CHO cells; human PD-L1 transfected CHO cells
T2 sequence (Q9NZQ7 19-290): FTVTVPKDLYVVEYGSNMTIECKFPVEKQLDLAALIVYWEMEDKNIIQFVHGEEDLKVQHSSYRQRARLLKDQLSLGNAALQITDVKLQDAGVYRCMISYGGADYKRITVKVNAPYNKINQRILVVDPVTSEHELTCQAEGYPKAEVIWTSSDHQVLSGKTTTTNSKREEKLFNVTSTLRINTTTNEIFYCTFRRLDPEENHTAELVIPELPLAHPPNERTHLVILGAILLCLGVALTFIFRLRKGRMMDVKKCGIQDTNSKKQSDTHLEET
The test can be described thus: FACS on human PD-L1 transfected CHO cells. As for the experimental part:
as §1, with “3:” for “2:”, “PDL1” for “41BB”, “[…]” for “a full-length”, “6.” for “5. All of the tetra-specific GNC antibodies except for the control SI-27E12 contain a 41BB binding domain, 460C3, 420H5, or 466F6 and bound to 41BB expressing CHO cells with varying intensity.”
Turning to B1, the binding result was “binds”.
Regarding B2, the binding result is “binds”.
Still for that read-out and setting: for B3 the value was “binds”; for B4, “binds”.
Same read-out and setting: for B5 the value was “binds”; for B6, “binds”.
The same measure, in the same setting: the result for B7 reads “binds”; that for B8, “binds”.

The target in a further test is T3, full-length human ROR1 (human, UniProt Q01973 30-937).
T3 construct: whole, on cells; also called human ROR1 transfected CHO cells; ROR1-CHO cells
T3 sequence (Q01973 30-937): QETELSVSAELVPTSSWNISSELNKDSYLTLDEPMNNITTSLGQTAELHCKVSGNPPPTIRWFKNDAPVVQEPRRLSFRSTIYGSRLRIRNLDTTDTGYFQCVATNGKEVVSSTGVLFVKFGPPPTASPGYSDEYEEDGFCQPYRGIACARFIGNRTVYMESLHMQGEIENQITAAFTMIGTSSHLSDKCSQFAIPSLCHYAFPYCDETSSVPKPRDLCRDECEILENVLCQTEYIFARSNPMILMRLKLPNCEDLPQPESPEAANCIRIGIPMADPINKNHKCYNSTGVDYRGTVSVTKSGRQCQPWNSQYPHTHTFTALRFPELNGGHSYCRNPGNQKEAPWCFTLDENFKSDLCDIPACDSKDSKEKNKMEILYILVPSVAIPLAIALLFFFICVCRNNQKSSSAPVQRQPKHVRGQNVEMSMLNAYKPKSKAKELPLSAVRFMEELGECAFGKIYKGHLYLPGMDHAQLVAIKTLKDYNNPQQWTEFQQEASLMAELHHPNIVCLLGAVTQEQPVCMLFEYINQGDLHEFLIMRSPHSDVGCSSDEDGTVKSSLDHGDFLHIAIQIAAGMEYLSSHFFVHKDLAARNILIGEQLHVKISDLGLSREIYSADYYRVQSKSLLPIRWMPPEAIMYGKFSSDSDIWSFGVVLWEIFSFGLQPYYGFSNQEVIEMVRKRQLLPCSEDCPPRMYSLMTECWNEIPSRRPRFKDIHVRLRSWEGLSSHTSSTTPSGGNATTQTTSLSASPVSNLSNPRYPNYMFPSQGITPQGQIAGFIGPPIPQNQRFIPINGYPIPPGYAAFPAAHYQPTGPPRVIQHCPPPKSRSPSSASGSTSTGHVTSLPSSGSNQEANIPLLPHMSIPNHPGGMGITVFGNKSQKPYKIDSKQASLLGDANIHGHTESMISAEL
The test can be described thus: FACS on CHO cells stably expressing full-length human ROR1. As for the experimental part:
as §1, with “Example 1:” for “Example 2:”, “Tetra-Specific Specific” for “Tetra-Specific GNC”, “Human ROR1” for “Human 41BB”, “FIG. 4.” for “FIG. 5. All of the tetra-specific GNC antibodies except for the control SI-27E12 contain a 41BB binding domain, 460C3, 420H5, or 466F6 and bound to 41BB expressing CHO cells with varying intensity.”
Turning to B1, the binding result is “binds”.
Still for that read-out and setting: the result for B2 reads “binds”; that for B3, “no binding”; that for B4, “no binding”.
Turning to B5, the binding result is listed as “binds”.
Same read-out and setting: the result for B6 reads “no binding”; that for B7, “binds”; that for B8, “binds”.
